According to patent US20140112930A1 (published 2014):
Changes are numbered by the printed parent chain.

What was measured:
[1] = molecular target: T1, hAng-2FD-mFc I-434-M (human, UniProt O15123 282-496); experiment: SPR 25C, hAng-2FD-mFc captured on anti-mFc, 100 nM analyte
T1 construct: not shown: mouse Fc
T1 chain: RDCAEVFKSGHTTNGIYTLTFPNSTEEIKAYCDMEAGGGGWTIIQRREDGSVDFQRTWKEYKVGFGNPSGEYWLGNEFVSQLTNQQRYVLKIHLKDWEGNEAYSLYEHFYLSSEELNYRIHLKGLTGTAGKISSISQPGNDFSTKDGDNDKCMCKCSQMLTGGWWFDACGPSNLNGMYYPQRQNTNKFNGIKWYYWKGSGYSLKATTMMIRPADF

[2] = molecular target: T2, hAng-2FD-mFc S-417-I (human, UniProt O15123 282-496); experiment: as above
T2 construct: not shown: mouse Fc
T2 chain: T1 chain with S136I, M153I

[3] = molecular target: T3, hAng-2FD-mFc S-480-P (human, UniProt O15123 282-496); experiment: as above
T3 construct: not shown: mouse Fc
T3 chain: T1 chain with M153I, S199P

[4] = molecular target: T4, wild-type Ang-2FD-mFc construct (human, UniProt O15123 282-496); experiment: as above
T4 construct: also called WT; hAng-2FD-mFc; not shown: mouse Fc
T4 sequence: T1 chain with M153I

[5] = molecular target: T5, hAng-2FD-mFc K-432-N (human, UniProt O15123 282-496); experiment: as above
T5 construct: not shown: mouse Fc
T5 chain: T1 chain with K151N, M153I

[6] = molecular target: T6, hAng-1-WT (human, UniProt Q15389 20-498, limits assumed); experiment: SPR, 1 uM blocker premixed with 10 nM hAng-1-WT, over hTie-2-mFc surface; RU of hAng-1 bound
T6 construct: a tag is not mentioned there; also called full-length wild-type human Ang-1
T6 sequence (looked up): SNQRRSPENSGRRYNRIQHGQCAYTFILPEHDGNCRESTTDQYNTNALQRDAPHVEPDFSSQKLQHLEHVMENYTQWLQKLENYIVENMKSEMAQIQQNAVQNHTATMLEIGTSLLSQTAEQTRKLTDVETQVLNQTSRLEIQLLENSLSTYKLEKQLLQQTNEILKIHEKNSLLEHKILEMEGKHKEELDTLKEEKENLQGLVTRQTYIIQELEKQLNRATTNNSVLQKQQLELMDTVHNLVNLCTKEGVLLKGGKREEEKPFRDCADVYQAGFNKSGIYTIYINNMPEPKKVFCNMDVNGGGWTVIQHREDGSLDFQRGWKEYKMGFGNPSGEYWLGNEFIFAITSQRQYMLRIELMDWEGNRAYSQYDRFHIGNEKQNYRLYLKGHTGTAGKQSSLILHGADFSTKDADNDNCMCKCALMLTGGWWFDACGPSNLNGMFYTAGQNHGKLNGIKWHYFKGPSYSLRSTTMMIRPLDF
Protocol: In this experiment, a human Tie-2 full-length extracellular domain construct (hTie-2-mFc-ecto) was amine-coupled on a BIACORE™ chip to create a receptor coated surface. […] The equilibrated solutions were injected over the receptor surfaces at 5 μL/min for 5 minutes at 25° C.

[7] = molecular target: T7, Biotin-hBA2 (human, biotinylated (sites not given)); experiment: blocking ELISA, biotin-hBA2 to hTie-2
T7 construct: hBA2 consists of two dimers; also called biotinylated hBA2; human bow-Ang2

[8] = molecular target: T8, Full-length human Ang-1 protein conjugated to 6x histidine tag (human, UniProt Q15389 20-498, limits assumed); experiment: blocking ELISA, 0.6 nM hAng-1-His to coated hTie-2-mFc
T8 construct: Bought (R&D Systems); printed as full-length; also called hAng-1 WT; Ang-1-His; not shown: 6x histidine tag
T8 sequence (looked up): T6 sequence (looked up)
Protocol: Briefly, hTie-2-mFc (a chimeric construct consisting of human Tie-2 conjugated to mouse IgG; SEQ ID NO:525) was coated onto 96-well plates at a concentration of 2 μg/ml and incubated overnight followed by washing four times in wash buffer (PBS with 0.05% Tween-20). The plate was then blocked with PBS (Irvine Scientific, Santa Ana, Calif.) containing 0.5% BSA (Sigma-Aldrich Corp., St. Louis, Mo.) for one hour at room temperature. […] The antibody/antigen mixture was then added to the plate containing hTie-2-mFc and incubated for one hour at room temperature. […] Absorbance was read at OD₄₅₀ for 0.1 sec.

T7 sequence (chain, as listed by the source limits assumed): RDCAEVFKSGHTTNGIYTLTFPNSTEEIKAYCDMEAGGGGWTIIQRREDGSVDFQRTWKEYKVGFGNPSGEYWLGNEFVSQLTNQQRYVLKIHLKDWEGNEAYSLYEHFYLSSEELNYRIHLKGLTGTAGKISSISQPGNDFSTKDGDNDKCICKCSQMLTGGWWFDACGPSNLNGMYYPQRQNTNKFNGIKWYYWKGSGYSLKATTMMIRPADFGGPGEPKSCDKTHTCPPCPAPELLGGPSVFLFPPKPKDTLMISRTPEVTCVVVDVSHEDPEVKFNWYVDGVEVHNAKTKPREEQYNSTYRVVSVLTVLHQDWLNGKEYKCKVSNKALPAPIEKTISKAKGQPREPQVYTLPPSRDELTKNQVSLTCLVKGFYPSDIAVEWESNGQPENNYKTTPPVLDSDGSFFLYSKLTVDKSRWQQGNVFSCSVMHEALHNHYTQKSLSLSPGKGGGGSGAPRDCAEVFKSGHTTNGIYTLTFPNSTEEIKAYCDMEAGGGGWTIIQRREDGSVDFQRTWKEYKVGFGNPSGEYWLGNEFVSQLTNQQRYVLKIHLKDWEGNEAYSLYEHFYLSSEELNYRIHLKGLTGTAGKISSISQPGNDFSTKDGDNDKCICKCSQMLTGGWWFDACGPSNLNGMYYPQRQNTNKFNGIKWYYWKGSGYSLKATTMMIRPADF

Kd [1]: 0.0318 nM
RU [1]: 213 RU
T ½ [1]: 43.1 h
Kd [2]: 0.0512 nM
RU [2]: 127 RU
T ½ [2]: 26.5 h
Kd [3]: 0.0225 nM
RU [3]: 228 RU
T ½ [3]: 35.5 h
Kd [4]: 0.0398 nM
RU [4]: 213 RU
T ½ [4]: 15.1 h
Kd [5]: 0.0487 nM
RU [5]: 137 RU
T ½ [5]: 28.2 h
RU (average) [6]: 57 RU
IC50 [7]: 0.025 nM
IC50 [8]: 187 nM
B1: H1H744N (antibody, V domains shown)
VH: QVQLVQSGVEVKKPGASVKVSCKTSGYTFSNNGFSWVRQAPGQGLEWLGWISGYNGNTNYAQKFQGRVTMTTDTSTSTAYMELRTLRSDDTAVYYCARDQDYSNFHWLDPWGQGTLVTVAS
VL: DIQMTQSPSSVSASVGDRVIITCRASQGLSSWLAWYQQKPGTAPKLLIHSASSLQTGVPSRFSGSGSGTEFALTINSLQPEDFGTYYCQQANSFPLTFGGGTRVEIK
